Tests used:
SAP3:CFP = target: T1, SAP3:CFP (A. thaliana, UniProt Q9ZNU9 1-163); experiment: FRET or BRET
T1 sequence (looked up): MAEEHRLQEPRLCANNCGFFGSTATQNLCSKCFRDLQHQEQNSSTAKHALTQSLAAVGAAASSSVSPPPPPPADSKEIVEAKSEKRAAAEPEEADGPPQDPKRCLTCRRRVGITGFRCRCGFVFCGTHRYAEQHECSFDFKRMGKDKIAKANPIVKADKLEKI

SAP2:CFP = target: T2, SAP2:CFP (A. thaliana, UniProt Q8H0X0 1-173); experiment: FRET or BRET
T2 sequence (looked up): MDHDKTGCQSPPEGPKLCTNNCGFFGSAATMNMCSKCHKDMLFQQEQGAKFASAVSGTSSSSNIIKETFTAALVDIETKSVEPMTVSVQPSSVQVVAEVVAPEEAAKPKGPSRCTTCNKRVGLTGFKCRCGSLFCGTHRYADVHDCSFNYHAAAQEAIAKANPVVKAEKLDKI

FRET efficiency, fold of negative control (SAP3:CFP): > 5 fold of negative control | FRET efficiency, fold of negative control (SAP2:CFP): > 5 fold of negative control
B1: CML49:YFP (natural protein, A. thaliana, UniProt Q8W4L0 1-335, looked up)
chain: MSGYPPSSQGYGYGGNPPPPQPPYGSTGNNPPPYGSSGSNPPPPYGSSASSPYAVPYGAQPAPYGAPPSAPYASLPGDHNKPHKEKPHGASYGSPSPGGYGAHPSSGPSDYGGYGGAPQQSGHGGGYGGAPQQSGHGGGYGAPPPQASYGSPFASLVPSAFPPGTDPNIVACFQAADRDNSGFIDDKELQGALSSYNQSFSIRTVHLLMYLFTNSNVRKIGPKEFTSLFFSLQNWRSIFERFDKDRSGRIDTNELRDALMSLGFSVSPVILDLLVSKFDKSGGRNRAIEYDNFIECCLTVKGLTEKFKEKDTALSGSAIFNYENFMLTVLPFLVA

Source: doi:10.1101/2021.02.18.431817 (bioRxiv, 2021)
